# Experimental data taken from article PMC314469, “Protein Interaction Networks by Proteome Peptide Scanning” (PLoS Biology, 2004).
# T1: amphyphisin SH3 (AMPH_HUMAN), P49418
# T1 chain: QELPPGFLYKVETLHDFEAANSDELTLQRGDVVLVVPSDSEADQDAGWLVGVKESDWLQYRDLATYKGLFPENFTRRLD
# Assays:
# [1] = molecular target: T1, amphyphisin SH3 (AMPH_HUMAN), P49418; test: SPOT array
# [2] = molecular target: endophilin SH3 (SH3G2_HUMAN), Q99962; test: SPOT array
Binder,"normalised SPOT signal, Boehringer light units (BLU); mean over the file's lines of this peptide [1]","normalised SPOT signal, Boehringer light units (BLU); mean over the file's lines of this peptide [2]"
VVPVPERPPEPRAM [O94820 840-854],15.7,860
SLTRIPRPGRQRRD [Q12770 808-821],817,294
VYTPPPRPPPPWGS [AAH30267 1118-1132],180,4170
VTDLPKKPPPPEAT [Q96QH2 111-125],51.8,58
WISQISRPRKKGRK [Q92794 305-318],190,452
WRKIPKRPGSVHRT [P11229 442-455],48.9,573
WGSLPARPRRPTPT [Q13545 27-40],4730,7230
WAGTLQRPVKLLPW [P54317 34-47],109,332
VVELPRRPAPPAAV [Q96SN6 144-157],35.8,60.5
WRYDLRRPSFTRTW [Q96N50 15-28],140,628
WIPVLQRPSRTAAV [O94854 101-114],2390,1300
VTLLIYRPERNTKL [Q9H4N5 254-267],362,28.7
VSAALRRPGPSLVL [Q9BSQ9 205-218],34,0
VSMQLRRPSDRELS [Q04206 268-281],44.8,642
VSGPPRKPPGTVAG [O00255 515-529],61.2,63.4
VTDLPKKPPPPEVT [Q96QH2 87-101],53,58.7
VSHLIRRPISVNPN [Q9NXY9 858-871],36.8,381
WRRSLRRPDSRGRF [Q9H1V5 704-717],95.6,217
WSQSPQRPPPSTTH [O14782 762-776],73.9,557
VSPEPRRPAPAVSP [Q96JM3 305-318],233,10.4
WALFFRRPKASLPR [Q9ULK5 218-231],194,1700
WGALPPRPPLLLLL [Q9C0B8 71-85],42.8,3390
VYKPPLKPPKGTRQ [O94991 330-344],80.6,782
VSYPPSKPPTYEEQ [Q15134 299-313],56.5,42.4
WLGSLRRPSLVHGY [Q96G29 26-39],879,2680
VSVLPKRPRPAEFK [Q96QH2 350-363],54.2,5850
SLLSPLRPPGQRGL [Q9UL14 222-236],398,323
VTIRPLRPPQRARL [O15211 317-331],19300,11400
WSLKLSRPSKDYLL [Q9UL63 619-632],1110,2270

# Now from value to binder:
"normalised SPOT signal, Boehringer light units (BLU); mean over the file's lines of this peptide [1]","normalised SPOT signal, Boehringer light units (BLU); mean over the file's lines of this peptide [2]",Binder
7550,18400,WSRSPPRPPRERFE [Q9UP58 185-199]
157,1560,VTSKPRKPPTPPEK [Q96JP2 954-968]
129,0.4,ASEIIERPSKKDGF [Q9BZF1 153-166]
7190,4250,WPAGPRRPHRSSAS [Q9NP08 303-316]
26.3,326,WLTSLKRPLVVIHE [P54198 312-325]
465,0,VVVALSRPVRPQDL [Q9Y6W6 10-23]
272,366,WSEVLHRPWRNHPI [O43397 6-19]
2920,2050,VVSSPPRPVRHGDM [Q9Y6A1 387-400]
39.1,1400,VTQLPARPPPALYT [Q9NRJ4 1023-1037]
64.7,279,VVPQPQRPDKSPLP [P50548 338-351]
32.8,33.4,VTSRFKRPVNVPRD [Q9P0K9 253-266]
4460,3620,WGLLPFRPPRPLPV [Q96DX2 170-184]
57.9,59.6,SLSLPDKPPPQPQQ [P42695 1464-1478]
